Laboratory results as given in US20240108738A1, “BICYCLIC PEPTIDE LIGANDS SPECIFIC FOR NK CELLS” (Bicycle Tx Limited, priority 2021, published 2024).

Biological target: human CD16a F176 variant, biotinylated (human) (UniProt P08637)
Test: AlphaScreen competition: 10 nM C-terminally biotinylated CD16a F176, mouse IgG2a-conjugated acceptor beads as competed ligand

Sequence of human CD16a F176 variant, biotinylated (human) (P08637 17-208 limits assumed, change not shown): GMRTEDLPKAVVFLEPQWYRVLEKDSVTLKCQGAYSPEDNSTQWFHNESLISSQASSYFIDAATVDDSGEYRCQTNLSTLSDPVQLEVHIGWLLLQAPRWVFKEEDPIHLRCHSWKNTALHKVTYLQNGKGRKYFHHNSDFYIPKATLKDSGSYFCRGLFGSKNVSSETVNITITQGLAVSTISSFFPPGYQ

IC50 (read off the curve): 50 nM
Substance: IgG positive control (antibody)
